Assay: Normalized fluorescence from retinal vasculature following IV injection of fluorescent tracer agents (renal clearance)
Conditions: period of 15 min after IV injection, FIG. 12A
Description: Normalized fluorescence from retinal vasculature following sequential IV FITC-inulin (green) and Rhod-Dex (500 kD, red) using Phoenix Research Systems Micron imaging may be obtained. Traces synchronized to tail-vein injection (T=0 min). […] Inulin clearance based on traces of normalized fluorescence and previous calibration of Inulin/Rhod-Dex ratio in WT mouse whole blood (insert). Dashed black lines=exponential and linear (insert) curve fits to inulin concentration.
As an example, AK-Fluor®, a fluorescein-based substance, may be used as a first tracer agent that is substantially cleared by healthy renal function and emits a first fluorescent light when excited by a first excitation light. […] In some examples, a AK-Fluor® of 10^−7 g/ml is injected into the patient during an iGFR procedure. […] As shown, in addition to recording the fluorescence signals representing the fluorescent intensities of a first tracer agent and a second tracer agent, a decay rate of the first tracer agent may also be fitted to a first exponential order. […] As another example, FITC-inulin may also be used as a first tracer agent that is substantially cleared by healthy renal function and emits a first fluorescent light when excited by a first excitation light.

## FITC-inulin
  fluorescence of tracer agent after injection (clearance by healthy renal function): decrease over a period of 15 min after injection
